Where a chain is given by its changes, count along the chain named.
T1: thrombopoietin receptor (TpoR) (UniProt P40238 26-635, limits assumed)
T1 construct: whole, on cells; It was immunoprecipitated with anti-FLAG beads, so the expressed TpoR evidently carries a FLAG tag; The construct and the position of the tag are not described; also called TPO receptor
T1 sequence (looked up): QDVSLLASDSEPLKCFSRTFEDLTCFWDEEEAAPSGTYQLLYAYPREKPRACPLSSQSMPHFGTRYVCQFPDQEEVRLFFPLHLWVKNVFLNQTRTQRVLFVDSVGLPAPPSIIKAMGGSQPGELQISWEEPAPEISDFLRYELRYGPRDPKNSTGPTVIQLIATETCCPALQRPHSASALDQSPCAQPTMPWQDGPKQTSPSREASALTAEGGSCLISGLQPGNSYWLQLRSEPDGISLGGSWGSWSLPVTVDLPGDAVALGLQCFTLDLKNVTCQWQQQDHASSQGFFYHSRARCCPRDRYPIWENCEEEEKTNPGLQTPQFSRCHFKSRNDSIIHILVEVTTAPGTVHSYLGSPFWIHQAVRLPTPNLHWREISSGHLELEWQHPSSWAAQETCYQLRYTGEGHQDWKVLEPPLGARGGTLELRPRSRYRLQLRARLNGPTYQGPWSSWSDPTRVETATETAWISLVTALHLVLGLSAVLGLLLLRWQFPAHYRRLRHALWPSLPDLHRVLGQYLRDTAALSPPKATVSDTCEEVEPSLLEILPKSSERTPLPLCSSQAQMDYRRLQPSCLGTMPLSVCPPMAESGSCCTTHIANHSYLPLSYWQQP

T2: full-length 30 amino acid CALR mutant neoepitope peptide (peptide used for immunisation) (human)
T2 construct: also called full-length peptide
T2 peptide: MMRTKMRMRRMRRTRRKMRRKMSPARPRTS

B1: 4D7 rat monoclonal IgG2a anti-mutant calreticulin antibody (antibody, V domains shown)
VH: QVQLQQSGAELAKPGSSVKISCKASGYTFTNYDMSWIKQRPGQALEWIGAINPGNGVTDYNEKFRGKATLTVDKSSSTAFMQLSSLTPEDTAVYHCAREYRDNYGYFDYWGQGVMVTVSS
VL: DIVLTQTPVSLSVTLGDQASISCRSSQSLEYSDGYTYLDWFLQKPGQSPQLLIYEVSSRFSGVPDRFIGRGSGTDFTLKISRVEPEDLGVYYCFQATHDPFTFGSGTKLEIK
notes: also called clone 4D7; clone 4D7 mAb
B2: wild type calreticulin (CALR) (other, human, UniProt P27797 18-417, looked up)
chain: EPAVYFKEQFLDGDGWTSRWIESKHKSDFGKFVLSSGKFYGDEEKDKGLQTSQDARFYALSASFEPFSNKGQTLVVQFTVKHEQNIDCGGGYVKLFPNSLDQTDMHGDSEYNIMFGPDICGPGTKKVHVIFNYKGKNVLINKDIRCKDDEFTHLYTLIVRPDNTYEVKIDNSQVESGSLEDDWDFLPPKKIKDPDASKPEDWDERAKIDDPTDSKPEDWDKPEHIPDPDAKKPEDWDEEMDGEWEPPVIQNPEYKGEWKPRQIDNPDYKGTWIHPEIDNPEYSPDPSIYAYDNFGVLGLDLWQVKSGTIFDNFLITNDEAYAEEFGNETWGVTKAAEKQMKDKQDEEQRLKEEEEDKKRKEEEEAEDKEDDEDKDEDEEDEEDKEEDEEEDVPGQAKDEL
notes: also called CALR^WT; endogenous wild type CALR
B3: 2D2 rat monoclonal anti-mutant calreticulin antibody (antibody, V domains shown)
VH: QVQLQQSGAELTKPGSSVKISCKTSGYTFTTYDISWIKQRPGQALEWIGAIYPGGVTTGYNEKFKGKATLTVDKSSNTAFMQLSSLTPEDTAVYYCARWGHTTGTRFDHWGQGVMVTVSS
VL: DVLLTQTPVSLSVSLGDQASISCRSSQSLEYSDGYTYLEWYVQKPGQSPQLLIYEVSDRFSGVPDRFIGSGSGTDFTLKISRVEPEDLGVYYCFQATHDPPTFGGGTKLELK
notes: also called rat anti-human mutCALR 2D2
B4: 9H11 rat monoclonal anti-mutant calreticulin antibody (antibody, V domains shown)
VH: B3 VH with T24A, V56E, G66D
VL: B3 VL with V2I, L3V, Y54W
notes: also called rat anti-human mutCALR 9H11

Legend:
[1] = molecular target: T1, thrombopoietin receptor (TpoR); assay: flow cytometry on TF-1 TpoR cells (TpoR with endogenous wild type CALR)
[2] = molecular target: B2; assay: Western blot of TF-1 cell extracts (hybridoma clone screen)
Description: (§1) B. Replicate Scatchard analyses of 4D7 using I¹²⁵-labelled and unlabelled 4D7 bound to full-length peptide (n=3). C. […] Cells were cultured in the presence or absence of 10 ng/ml TPO (n=3). D. Paracrine CALR-mutant protein is not sufficient to maintain TPO sensitive cells in culture. TF1 TpoR and TF-1 TpoR CALR^del61 cells were seeded at the same density and cultured in the presence or absence of TPO. Cells were separated by semi-permeable membrane in a horizontal co-culture system. Cell populations on either side of the membrane were counted every 24 hours over 4 days in triplicate and representative images were taken on day 4. Exogenous CALR secreted by TF-1 TpoR CALR^del61 was unable to assist growth of factor dependent TF-1 TopR cells (n=3). E. Histogram overlays showing fluorescence intensity of unstained and PE conjugated IgG2a isotype control in TF-1, TF-1 TpoR and TF-1 TpoR CALR^del61 compared to 4D7 conjugated to PE.
(§2) For immunoblotting of total lysates, cells were lysed in NP40 buffer containing 150 mM NaCl, 50 mM Tris pH 7.6, 1% NP-40, supplemented with protease inhibitors (Complete, Roche) and phosphatase inhibitor cocktails, and boiled for 5 minutes after addition of sample buffer (60 mM Tris pH 6.8, 5% glycerol, 1% SDS, 2% β-mercaptoethanol, 0.02% bromophenol blue) before SDS gel electrophoresis followed by Western blotting (Tvorogov et al, 2010). […]

[3] = molecular target: T2, full-length 30 amino acid CALR mutant …; assay: 125I-Scatchard analysis, saturation binding of 125I-4D7 to plate-coated peptide
Description: 4D7 was radio-iodinated with ¹²⁵I (Perkin-Elmer) using Pierce Pre-Coated Iodination tubes (Thermo Scientific) with an estimated specific activity of 7733cpm/ng. For saturation binding assays, plates were coated overnight at 4° C. with full-length neoepitope CALR peptide (2 μg/mL) or control scrambled peptide (2 μg/mL). Wells were washed 3 times with phosphate buffered saline+0.05% Tween20, blocked with 5% bovine serum albumin for 1 hour followed by further washing. ¹²⁵I-4D7 was added at concentrations ranging from 2 pM to 2.5 nM in triplicate and incubated at room temperature for 2 hours. After washing, 1M HCl was added for 30 minutes to elute bound antibody. 200 μL aliquots from each well were counted on a PerkinElmer 2470 Wizard2 Automatic Gamma Counter. Dissociation constants were calculated using the EBDA and LIGAND programs.

[4] = molecular target: T2, full-length 30 amino acid CALR mutant …; assay: Scatchard analysis, 125I-labelled and unlabelled 4D7 on plate-bound full-length peptide; left plot of three replicates, R2= 0.9794
Description: as §1, with “A. Western blot screening of various mutant CALR antibody clones produced from hybridomas in TF-1 TpoR and TF-1 TpoR CALR^del61. Varying levels of intensity can be observed, compared to commercial Dianova monoclonal mutant CALR antibody. 4D7 is able to detect mutant CALR protein in CALR^del61 cells but not in CALR wild type TF-1 cells. B.” for “B.”, “Cells were separated by semi-permeable membrane in a horizontal co-culture system.” left out, “Exogenous CALR secreted by TF-1 TpoR CALR^del61 was unable to assist growth of factor dependent TF-1 TopR cells (n=3).” left out
(§3) 4D7 was radio-iodinated with ¹²⁵I (Perkin-Elmer) using Pierce Pre-Coated Iodination tubes (Thermo Scientific) with an estimated specific activity of 7733cpm/ng. […] 200 μL aliquots from each well were counted on a PerkinElmer 2470 Wizard2 Automatic Gamma Counter. Dissociation constants were calculated using the EBDA and LIGAND programs.

[5] = molecular target: T2, full-length 30 amino acid CALR mutant …; assay: Scatchard analysis, 125I-labelled and unlabelled 4D7 on plate-bound full-length peptide; right plot of three replicates, R2= 0.994
Description: as §1, with “A. Western blot screening of various mutant CALR antibody clones produced from hybridomas in TF-1 TpoR and TF-1 TpoR CALR^del61. Varying levels of intensity can be observed, compared to commercial Dianova monoclonal mutant CALR antibody. 4D7 is able to detect mutant CALR protein in CALR^del61 cells but not in CALR wild type TF-1 cells. B.” for “B.”, “Cells were separated by semi-permeable membrane in a horizontal co-culture system.” left out, “Exogenous CALR secreted by TF-1 TpoR CALR^del61 was unable to assist growth of factor dependent TF-1 TopR cells (n=3).” left out
as §3

[6] = molecular target: T2, full-length 30 amino acid CALR mutant …; assay: Scatchard analysis, 125I-labelled and unlabelled 4D7 on plate-bound full-length peptide; middle plot of three replicates, R2= 0.9926
Description: as §1, with “A. Western blot screening of various mutant CALR antibody clones produced from hybridomas in TF-1 TpoR and TF-1 TpoR CALR^del61. Varying levels of intensity can be observed, compared to commercial Dianova monoclonal mutant CALR antibody. 4D7 is able to detect mutant CALR protein in CALR^del61 cells but not in CALR wild type TF-1 cells. B.” for “B.”, “Cells were separated by semi-permeable membrane in a horizontal co-culture system.” left out, “Exogenous CALR secreted by TF-1 TpoR CALR^del61 was unable to assist growth of factor dependent TF-1 TopR cells (n=3).” left out
as §3

[7] = molecular target: T1, thrombopoietin receptor (TpoR); assay: co-immunoprecipitation with anti-FLAG (MPL/TpoR), reducing Western blot
Description: B. Similar experiment using TPO-independent TF-1 TpoR CALR^del61 cells at 4 and 8 hours. C. Similar experiment shown using TPO-independent TF-1 TpoR CALR^del52 cells, 8 hours. D. Flow cytometry analysis for cell cycle distribution of TF-1 TpoR CALR^del61 cells exposed to 20 μg/mL IgG or 4D7 for 48 hours. Cells were harvested and fixed and stained with propidium iodide and their DNA contents were analysed. Results from one representative experiment shown. Percentages of cells in Sub Go, G1. S and G2/M cycle indicated. E. Western blot showing specific co-immunoprecipitation of mutant CALR^del61 cells with TpoR anti-FLAG antibody under reducing conditions detected by total and mutant specific CALR antibodies. Arrowheads represent detected CALR protein. F. Western blot showing decreased TpoR phosphorylation in a TpoR immunoprecipitated after 8 hours of 20 μg/mL 4D7 treatment compared to PBS or IgG control in TF-1 TpoR CALR^del61.
as §2

[8] = molecular target: T2, full-length 30 amino acid CALR mutant …; assay: ELISA on peptide
mutant CALR protein = assay: Western blot detection of mutant CALR by hybridoma clones; format: binding, human; conditions: cell extracts from TF-1 cells transduced with and without mutant CALR; data not shown
Description: (§4) Rats were immunised with a CALR mutant peptide “MMRTKMRMRRMRRT RRKMRRKMSPARPRTS” coupled to KLH, this peptide sequence is unique to CALR mutant. Serum from the immunised rats was screened by enzyme linked immunoassay, to verify a strong titre to the peptide immunogen, prior to performing the hybridoma fusion. Immunised rat spleen cells were harvested and a spleen single cell suspension was combined with Sp2/O myeloma cell line. The cell mixture was treated with polyethylene glycol plus DMEM prior to been plated in 96 well flat bottom plates. The expanding hybridomas were screened initially by ELISA and the positive clones were further verified by western blot, for reactivity to the expressed CALR mutant protein before subcloning the hybridomas for antibody production.
For immunoblotting of total lysates, cells were lysed in NP40 buffer containing 150 mM NaCl, 50 mM Tris pH 7.6, 1% NP-40, supplemented with protease inhibitors (Complete, Roche) and phosphatase inhibitor cocktails, and boiled for 5 minutes after addition of sample buffer (60 mM Tris pH 6.8, 5% glycerol, 1% SDS, 2% β-mercaptoethanol, 0.02% bromophenol blue) before SDS gel electrophoresis followed by Western blotting (Tvorogov et al, 2010). Primary antibodies against pERK (#9101), pSTAT5 (#9359), ERK (#4695), Actin (#4970), Caspase 3 (#14220), wildtype CALR (#12238) were purchased from Cell Signalling. Primary antibodies against pSTATI (#612233), pSTAT3 (#612357), STATI (#610186), STAT3 (#610190), STAT5 (#610192) and Anti-phosphotyrosine 4G10 (#610012) were purchased from BD Biosciences. Mutant CALR monoclonal antibody CAL2 was purchased from Dianova (Hamburg, Germany). Immunopreciptation of TpoR was performed in standard NP40 lysis buffer with additional 50 mM iodoacetamide to avoid any de novo disulfide bond formation post lysis. To reduce IgG background during immunoprecipitation anti-FLAG conjugated to magnetic beads (Sigma, #M8823) were used. For this same reason, anti-FLAG-HRP conjugated antibodies (Sigma, #A8592) were used in western blotting.

[9] = tested on: TF-1 TpoR CALR^del61 cells; assay: Cell proliferation, trypan blue exclusion; format: cell-based, human; conditions: 5 or 20 μg/mL; FIG. 8
Description: […] Cells were seeded in triplicate and each well was counted in triplicate every 24 hours for 5 days using trypan blue exclusion.

[10] = tested on: 30 amino acid peptide corresponding to the C-terminal mutant CALR neoepitope sequence; assay: ELISA binding to peptide; set-up: species or system human
Description: as §4

[11] = molecular target: B2; assay: Western blot of cell extracts

| binding result [2] | Kd [3] [nM] | Kd [4] [nM] | Kd [5] [nM] | Kd [6] [nM] | binding result [7] | binding result [8] | binding to peptide by ELISA [10] | binding result [11] | Molecule | binding result [1] | detecting mutant but not wild type CALR protein by Western blotting (mutant CALR protein) | proliferation of cytokine-independent TF1 TpoR/mutCALR cells [9] |
| --- | --- | --- | --- | --- | --- | --- | --- | --- | --- | --- | --- | --- |
| no binding | 1.53 | 1.91 | 1.25 | 1.43 | – | – | – | – | B1 | no binding (tested: 4 µg/mL (FIG. 1D legend)) | – | – |
| – | – | – | – | – | no binding | – | – | – | B2 | – | – | – |
| no binding | – | – | – | – | – | binds | positive binding | – | B3 | – | superior activity | inhibit proliferation |
| – | – | – | – | – | – | binds | positive binding | no binding | B4 | – | superior activity | inhibit proliferation |

Source: US20250236667A1, “ANTIBODIES TO MUTANT CALRETICULIN AND USES THEREOF” (CENTRAL ADELAIDE LOCAL HEALTH NETWORK INC, priority 2021, published 2025)
